Data taken from article PMC6043778, “Purification and Initial Characterization of 3-Hydroxybenzoate 6-Hydroxylase From a Halophilic Martelella Strain AD-3” (Frontiers in Microbiology, 2018).
Positions count from the first letter of the chain named. Names may count otherwise.

T1: 3HB6H from strain AD-3 (3-hydroxybenzoate 6-hydroxylase; AZF01_02545) (Martelella sp. AD-3, UniProt Z9T156WZO1)
T1 construct: full-length, N-terminal His6 tag (pET28a, EcoRI/HindIII), E. coli BL21(DE3), Ni-NTA; about 46 kDa by SDS-PAGE, 90 kDa by Native-PAGE (probable dimer); FAD-containing
T1 sequence (Z9T156WZO1 1-403): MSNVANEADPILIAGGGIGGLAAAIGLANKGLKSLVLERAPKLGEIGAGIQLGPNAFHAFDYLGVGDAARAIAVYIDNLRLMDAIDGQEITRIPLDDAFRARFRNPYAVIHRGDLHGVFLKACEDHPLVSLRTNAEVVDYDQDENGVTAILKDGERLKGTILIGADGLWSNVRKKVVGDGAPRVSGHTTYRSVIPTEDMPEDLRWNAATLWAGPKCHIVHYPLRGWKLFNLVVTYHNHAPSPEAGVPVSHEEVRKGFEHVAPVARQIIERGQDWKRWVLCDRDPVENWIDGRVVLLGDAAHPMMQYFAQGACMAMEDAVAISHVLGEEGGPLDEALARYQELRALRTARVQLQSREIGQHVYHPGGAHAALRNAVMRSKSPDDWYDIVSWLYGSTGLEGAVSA

B1: 3HB6H from strain AD-3 (3-hydroxybenzoate 6-hydroxylase; AZF01_02545) (Martelella sp. AD-3) (protein)
chain: T1 sequence (Z9T156WZO1 1-403)
notes: full-length, N-terminal His6 tag (pET28a, EcoRI/HindIII), E. coli BL21(DE3), Ni-NTA; about 46 kDa by SDS-PAGE, 90 kDa by Native-PAGE (probable dimer); FAD-containing
B2: 3HB6H from strain AD-3 (3-hydroxybenzoate 6-hydroxylase; AZF01_02545) (Martelella sp. AD-3; A308G) (protein)
chain: T1 sequence (Z9T156WZO1 1-403) with A308G
notes: as for B1
B3: 3HB6H from strain AD-3 (3-hydroxybenzoate 6-hydroxylase; AZF01_02545) (Martelella sp. AD-3; Y221F) (protein)
chain: T1 sequence (Z9T156WZO1 1-403) with Y221F
notes: as for B1
B4: 3HB6H from strain AD-3 (3-hydroxybenzoate 6-hydroxylase; AZF01_02545) (Martelella sp. AD-3; Q305P) (protein)
chain: T1 sequence (Z9T156WZO1 1-403) with Q305P
notes: as for B1
B5: 3HB6H from strain AD-3 (3-hydroxybenzoate 6-hydroxylase; AZF01_02545) (Martelella sp. AD-3; Y306H) (protein)
chain: T1 sequence (Z9T156WZO1 1-403) with Y306H
notes: as for B1

molecular target: T1, 3HB6H from strain AD-3 (3-hydroxybenzoate 6-hydroxylase; AZF01_02545); test: NADH oxidation at […] nm, Lineweaver-Burk; assay type: biochemical; details: 400 μM 3-hydroxybenzoate, 50 mM potassium phosphate pH 8.0, 30°C; read-out: NADH / Km

Km [µM] | Molecule
50 ± 9.7 | NC(=O)C1=CN([C@@H]2O[C@H](COP(=O)(O)OP(=O)(O)OC[C@H]3O[C@@H](n4cnc5c(N)ncnc54)[C@H](O)[C@@H]3O)[C@@H](O)[C@H]2O)C=CC1 [NADH]

same assay, conditions: 400 μM NADH, 50 mM potassium phosphate pH 8.0, 30°C; read-out: 3HB / Km

Km [µM] | Molecule
28.6 ± 7.3 | O=C(O)c1cccc(O)c1 [3-hydroxybenzoate]

substrate: NC(=O)C1=CN([C@@H]2O[C@H](COP(=O)(O)OP(=O)(O)OC[C@H]3O[C@@H](n4cnc5c(N)ncnc54)[C@H](O)[C@@H]3O)[C@@H](O)[C@H]2O)C=CC1; test: purified protein; assay type: biochemical, Martelella sp. AD-3; details: 400 μM 3-hydroxybenzoate, 50 mM potassium phosphate pH 8.0, 30°C

Molecule | Km [µM] | kcat [s⁻¹] | kcat/Km [M⁻¹ s⁻¹]
B1 | 104.1 ± 18.2 | 7.8 ± 0.4 | 80000
B2 | 33.7 ± 6.4 | 2 ± 0.1 | 60000
B3 | 86.7 ± 10.8 | 1 ± 0.1 | 10000
B4 | 95.9 ± 23.2 | 1.6 ± 0.1 | 20000
B5 | 103.7 ± 13.6 | 1.6 ± 0.3 | –

substrate: O=C(O)c1cccc(O)c1; test: purified protein; assay type: biochemical, Martelella sp. AD-3; details: 400 μM NADH, 50 mM potassium phosphate pH 8.0, 30°C

Molecule | Km [µM] | kcat [s⁻¹] | kcat/Km [M⁻¹ s⁻¹]
B1 | 72.6 ± 10.1 | 5.7 ± 0.2 | 80000
B2 | 38.0 ± 10.1 | 2.3 ± 0.1 | 60000
B3 | 164.2 ± 14.0 | 1.7 ± 0.1 | 10000
B4 | 91.3 ± 13.5 | 1.6 ± 0.1 | 20000
B5 | 46.3 ± 6.9 | 1.5 ± 0.1 | 30000
